Measurements: US20240270813A1 (UNIVERSITY OF PITTSBURGH OF THE COMMONWEALTH SYSTEM OF …, published 2024)
Numbering of substitutions follows the chain as printed. Several values for one entry are separate records, joined by “and”; a condition that tells them apart may be missing. Identical values can stand only once. Each block holds one binder with its values, some of them ahead of it.

Legend:
[1] = molecular target: T1, HA-1 “H” peptide (…) presented by HLA-A*02:01 on antigen presenting cells (human); experiment: cell-based or functional assay
[2] = molecular target: T1, HA-1 “H” peptide (…) presented by …; experiment: cell-based or functional assay; remark: listed apart in the source

B1: TCR D (TCR, V domains shown)
V domain 1: AQSVAQPEDQVNVAEGNPLTVKCTYSVSGNPYLFWYVQYPNRGLQFLLKYITGDNLVKGSYGFEAEFNKSQTSFHLKKPSALVSDSALYFCAVRAPTSGTYKYIFGTGTRLKVLA
V domain 2: DTGVSQDPRHKITKRGQNVTFRCDPISEHNRLYWYRQTLGQGPEFLTYFQNEAQLEKSRLLSDRFSAERPKGSFSTLEIQRTEQGDSAMYLCASSLVSGNEQFFGPGTRLTVLE
EC50 for CD69 Expression [1]: < 10 nM and < 10 ng/mL

B3: TCR AI (TCR, V domains shown)
V domain 1: B1 V domain 1 with A95E
V domain 2: B1 V domain 2 with S98N
EC50 values for CD69 Expression [2]: 9.2 ng/mL

B5: TCR C (TCR, V domains shown)
V domain 1: KQEVTQIPAALSVPEGENLVLNCSFTDSAIYNLQWFRQDPGKGLTSLLLIQSSQREQTSGRLNASLDKSSGRSTLYIAASQPGDSATYLCAVRPRTSGTYKYIFGTGTRLKVLA
V domain 2: B1 V domain 2 with S95T, L96E, V97L, E101T, Q102I, F103Y, P106E, T108S, R109W, L113V
EC50 for CD69 Expression [1]: < 10 ng/mL and < 10 nM

B7: TCR E (TCR, V domains shown)
V domain 1: B1 V domain 1 with A95G
V domain 2: B1 V domain 2
EC50 for CD69 Expression [1]: < 10 ng/mL and < 10 nM

B8: TCR AH (TCR, V domains shown)
V domain 1: B1 V domain 1 with A95V
V domain 2: B1 V domain 2
EC50 values for CD69 Expression [2]: 3.4 ng/mL

Results, then the binder that gave them:

EC50 values for CD69 Expression [2]: 2.77 ng/mL
B2: TCR AE (TCR, V domains shown)
V domain 1: B1 V domain 1 with A95C
V domain 2: B1 V domain 2

EC50 values for CD69 Expression [2]: 2.49 ng/mL
B4: TCR AF (TCR, V domains shown)
V domain 1: B1 V domain 1 with A95S
V domain 2: B1 V domain 2

EC50 values for CD69 Expression [2]: 2.27 ng/mL
B6: TCR AG (TCR, V domains shown)
V domain 1: B1 V domain 1 with A95T
V domain 2: B1 V domain 2

EC50 for CD69 Expression [1]: < 10 ng/mL and < 10 nM
B9: TCR F (TCR, V domains shown)
V domain 1: GENVEQHPSTLSVQEGDSAVIKCTYSDSASNYFPWYKQELGKRPQLIIDIRSNVGEKKDQRIAVTLNKTAKHFSLHITETQPEDSAVYFCAAHLTGGGNKLTFGTGTQLKVEL
V domain 2: DTGVSQDPRHKITKRGQNVTFRCDPISEHNRLYWYRQTLGQGPEFLTYFQNEAQLEKSRLLSDRFSAERPKGSFSTLEIQRTEQGDSAMYLCASSSRAGGETQYFGPGTRLLVLE
